Results from PMC5575927.

How the values were obtained:
[1] = substrate: CC(=O)N[C@H](C(=O)N[C@@H](CC(C)C)C(=O)N[C@H](C(=O)N[C@@H](CCCCN)C(=O)Nc1ccc2c(C)cc(=O)oc2c1)[C@@H](C)O)C(C)C; experiment: Fluorogenic AMC release; assay type: biochemical; settings: pH 7.4; 25.0 °C
[2] = substrate: CC(=O)N[C@H](C(=O)N[C@@H](CC(C)C)C(=O)NCC(=O)N[C@@H](CCCCN)C(=O)Nc1ccc2c(C)cc(=O)oc2c1)C(C)C; experiment: Fluorogenic AMC release; assay type: biochemical; settings: pH 7.4; 25.0 °C

B1: PmC11 (Parabacteroides merdae) (protein)
chain: ETPEPRTTRTILVYMMANNSLNSFASKNIESMIEGATSKNLNGGNLIVYYAPAGSPPELLRIKEENGVVKKIHLKDYEKQNSADPDVMRSVIGEVVSQYPADSYGLVLWSHGTAWLPSDYQNKLKAFGQDGNNWMEIDDLAKGLPDDLFDFILFDACYMASVECTYELRNKAEYILASPTETMADGWPYEEMMPQLFATDLQLEKVGETFYNHYLNNTYPYATVSLTKTSELDNLKSVTHDILADKTESDIYSLDPKKMQRLEYLYRSPGMLYDFNDYIKQLATAEQYDRFISCLDKAVVYKAHTPKSYYAAIGNALPIKSYCGLTIFVPQESLPKMLEWYKQRVGWYKAVYE
Km [1]: 20.4 µM
Km [2]: ~185.8 µM
